Laboratory results as given in patent WO2015086830A1 (dated 2015).

Experiments:
[1] = biological target: VEGF (vascular endothelial growth factor) (UniProt P15692-4 27-191, limits assumed); assay: cell-based or functional assay
VEGF165 = biological target: T1, VEGF165 (UniProt P15692-4 27-191); assay: in vitro binding; method not stated
T1 construct: P15692 is the human VEGFA entry; VEGF165 is one isoform of that entry; also called VEGFA isoform 165
T1 sequence (P15692 other isoform, or with tags, fused parts or gaps limits assumed): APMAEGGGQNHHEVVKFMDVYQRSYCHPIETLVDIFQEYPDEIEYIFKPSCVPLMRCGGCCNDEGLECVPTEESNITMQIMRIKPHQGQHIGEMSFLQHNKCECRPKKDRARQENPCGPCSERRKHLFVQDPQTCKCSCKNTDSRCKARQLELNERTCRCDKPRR

VEGF (vascular endothelial growth factor), sequence (P15692 other isoform, or with tags, fused parts or gaps limits assumed): as above

- VEGF induced HUVEC proliferation, IC50 [1]: 0.19 nM
- Kd (VEGF165): 0.0284 nM
B1: scFv3, anti-VEGF-scFv comprising SEQ ID No.: 3 (scFv)
scFv: EIVMTQSPSTLSASVGDRVIITCQASEIIHSWLAWYQQKPGKAPKLLIYLASTLASGVPSRFSGSGSGAEFTLTISSLQPDDFATYYCQNVYLASTNGANFGQGTKLTVLGGGGGSGGGGSGGGGSGGGGSEVQLVESGGGLVQPGGSLRLSCTASGFSLTDYYYMTWVRQAPGKGLEWVGFIDPDDDPYYATWAKGRFTISRDNSKNTLYLQMNSLRAEDTAVYYCAGGDHNSGWGLDIWGQGTLVTVSS
notes: About 26.3 kDa
